Source: article PMC6831305, “Secreted protein acidic and rich in cysteine mediates active targeting of human serum albumin in U87MG xenograft mouse models” (Theranostics, 2019)

B1: recombinant human SPARC (secreted protein acidic and rich in cysteine) (natural protein, UniProt P09486 18-303, looked up)
chain: APQQEALPDETEVVEETVAEVTEVSVGANPVQVEVGEFDDGAEETEEEVVAENPCQNHHCKHGKVCELDENNTPMCVCQDPTSCPAPIGEFEKVCSNDNKTFDSSCHFFATKCTLEGTKKGHKLHLDYIGPCKYIPPCLDSELTEFPLRMRDWLKNVLVTLYERDEDNNLLTEKQKLRVKKIHENEKRLEAGDHPVELLARDFEKNYNMYIFPVHWQFGQLDQHPIDGYLSHTELAPLRAPLIPMEHCTTRFFETCDLDNDKYIALDEWAGCFGIKQKDIDKDLVI
notes: secreted protein acidic and rich in cysteine (SPARC), human, recombinant, cell-derived; also called exogenous SPARC; source: bought: R&D system (cell-derived, 941-SP)
B2: Cy3-labeled recombinant human SPARC (natural protein, UniProt P09486 18-303, looked up)
chain: B1 chain
modifications: ADIBO-NHS conjugated, then Cy3-azide by click reaction (sites not given)
notes: secreted protein acidic and rich in cysteine (SPARC), human, recombinant, cell-derived; Same bought protein as m2, with the Cy3 label; also called Cy3-SPARC; fluorescence-labeled SPARC; source: bought: R&D system (cell-derived, 941-SP), then labelled via ADIBO-NHS and Cy3-azide click reaction

Experiments:
[1] = molecular target: T1, FNR648-labeled human serum albumin (human, UniProt P02768 25-609, FNR648 fluorescence dye conjugated (site not stated)); assay: co-IP; SPARC and FNR648-HSA incubated 2 h at 4 °C after pre-clearing (normal rabbit serum, protein A/G PLUS-Agarose); precipitated with rabbit anti-SPARC antibody and protein A/G PLUS-Agarose; 8% SDS-PAGE, FNR648 fluorescence in the gel read by IVIS; settings: both partners purified
T1 construct: human serum albumin (HSA), human; The pre-clearing step of the IP names plain 'HSA'; the detected species is FNR648-HSA; also called FNR648-HSA; HSA
T1 sequence (P02768 25-609): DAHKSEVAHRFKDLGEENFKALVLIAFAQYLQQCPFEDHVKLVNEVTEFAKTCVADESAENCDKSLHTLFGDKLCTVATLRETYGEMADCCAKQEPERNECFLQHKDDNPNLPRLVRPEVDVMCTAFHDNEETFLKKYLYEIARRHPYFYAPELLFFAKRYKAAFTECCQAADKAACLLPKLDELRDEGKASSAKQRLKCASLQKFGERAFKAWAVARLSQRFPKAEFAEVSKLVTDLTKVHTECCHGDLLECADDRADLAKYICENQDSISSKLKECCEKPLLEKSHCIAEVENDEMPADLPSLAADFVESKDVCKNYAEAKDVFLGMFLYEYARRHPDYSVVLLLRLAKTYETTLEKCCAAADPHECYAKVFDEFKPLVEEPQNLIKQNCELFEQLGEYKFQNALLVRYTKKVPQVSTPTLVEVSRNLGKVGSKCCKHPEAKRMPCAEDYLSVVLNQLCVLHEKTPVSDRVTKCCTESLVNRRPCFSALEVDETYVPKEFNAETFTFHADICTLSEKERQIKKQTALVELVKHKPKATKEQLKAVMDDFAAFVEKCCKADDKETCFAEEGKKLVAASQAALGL

[2] = molecular target: T1, FNR648-labeled human serum albumin; assay: FRET or BRET; Cy3-SPARC (donor) and FNR648-HSA (acceptor) added to U87MG cells; confocal imaging, excitation 514 nm, emission 540-600 nm (Cy3-SPARC) and 640-750 nm (FNR648-HSA); line ROI analysis; settings: both partners purified

Binder | binding result [1] | binding result [2]
B1 | binds | –
B2 | – | binds
